This data set deals with CC(=O)Oc1ccc2ccccc2c1. Put plainly: purified protein. Conditions: pH 7 potassium phosphate, 60 °C, 0.1-0.95 mM substrate.

In the case of D1CarE5 (Alicyclobacillus sp. D-1), the Michaelis constant (Km) came out at 1000 µM.

What is called Km is the substrate concentration at which the rate is half of its maximum.

The record behind these values is article PMC3701795, “Heterologous expression and characterization of a malathion-hydrolyzing carboxylesterase from a thermophilic bacterium, Alicyclobacillus tengchongensis” (Biotechnology Letters, 2013).
